From article PMC2735845 (Journal of molecular biology, 2009)

B1: E. coli RecQ (wild type, full-length, hexahistidine-tagged) (enzyme)
chain: not shown
B2: E. coli RecQ S421A (enzyme)
chain: not shown
B3: E. coli RecQ R448A (enzyme)
chain: not shown
B4: E. coli RecQ Q428A (enzyme)
chain: not shown

Tests used:
[1] = target: T1, E. coli single-stranded DNA-binding protein (SSB), wild type (E. coli, UniProt P0AGE0 1-178); assay: cell-based or functional assay
[2] = target: T1, E. coli single-stranded DNA-binding …; assay: ammonium sulfate co-precipitation

Binder | SSB binding in solution relative to wild type [2] [%] | further results
B1 | – | Fold stimulation of RecQ helicase activity by SSB [1]: 9.7 fold
B2 | ~40 | –
B3 | – | co-precipitation with SSB relative to wild-type RecQ [2]: ~80%
B4 | ~3 | –
